Results published in US12280118B2 (Kyowa Kirin Co., Ltd., priority 2017, dated 2025).

How the values were obtained:
Format in all cases: cell-based
human Tresp = test: Inhibitory activity of IL-2-stimulated Tregs on Tresp proliferation; details: Tregs cultured 7 days with IL-2 (final concentration 65 nM); compared with unstimulated Treg
Procedure: All cells were separated from each other by the same lot of frozen human PBMC.
Seven days before the assay, Tregs were separated from the frozen human PBMCs as described in Example 13.
The cell preparation on the day of test was performed as follows. Tregs were separated from the frozen human PBMC by the method described in Example 13 and used as unstimulated Tregs. After CD3^+CD25^− T cells were separated from the frozen human PBMC, by using EasySep Human T Cell Enrichment Kit (manufactured by [sequence] Technologies) and EasySep Human Pan-CD25 Positive Selection and Depletion Kit (manufactured by [sequence] Technologies), the cells were labeled by reacting Celltrace violet (manufactured by Thermo Fischer [sequence]) diluted to 40 μmol/L with a 10% FBS-containing RPMI1640 medium, at room temperature for 5 minutes.
The obtained cells were used as responder T cells (Tresp). HLA-DR+ cells were separated from frozen human PBMCs using Anti-HLA-DR MicroBeads, human (manufactured by Miltenyi Biotec). The obtained cells were used as Antigen presenting cell (APC).
After the obtained cells were suspended in X-vivo 15 SFM to which an anti-CD3 antibody OKT3 (manufactured by Biolegend) was added to obtain a final concentration of 0.5 μg/mL, a 96-well V-bottom plate (manufactured by Sumitomo Bakelite) was seeded with Tresp at 2×10^4 cells/well (50 μL), APC at 1×10^5 cells/well (50 μL), and Tregs at 1.6×10^2 to 5×10^3 cells/well (50 μL) (Tresp:Treg=4:1 to 128:1), and the cells were cultured at 37° C. under 5% CO2 for 4 days.
Thereafter, the cells were stained with anti-human CD4-APC (manufactured by BD Pharmingen) and anti-human CD8-PE (manufactured by BD Pharmingen) (at room temperature for 15 minutes), and then various fluorescent intensities were measured by flow cytometer FACS Canto II (manufactured by BD Biosciences).
The obtained data was exported as FCS file, and then analyzed using data analysis software FLowJo (TreeStar, version 7.6.5) for a division index value, which is an average number of cell divisions in CD4^+ Tresp or CD8^+ Tresp.

human Tregs = test: Treg proliferation activity; details: for Treg proliferation activity: with respect to IL-2 (P) or 8His-IL-2 (P) as control
Procedure: After human frozen peripheral blood mononuclear cells (PBMCs) (manufactured by AllCells) were melted in a warm bath at 37° C., the cells were suspended in 10 mL of a culture medium [X-vivo15 SFM (manufactured by Lonza) 1000 mL, heat-inactivated human AB serum (manufactured by SIGMA) 150 mL], and a T-75 flask for adhesion (manufactured by greiner bio-one) was seeded the cells, and allowed to stand for 24 hours to culture the cells (37° C., under conditions of 95 vol % air/5 vol % CO2). A total amount of cells was collected, and CD4^+ T cells were enriched using EasySep Human CD4^+ Tcells Enrichment kit (manufactured by […] Technologies).
After staining (on ice, 30 minutes) with Anti-human CD4-Alexa 488 (manufactured by Biolegend), anti-human CD25-PE (manufactured by BD Pharmingen), and anti-human CD127-BV421 (manufactured by Biolegend), a CD4^+ CD25^+ CD127^low fraction (Treg) was separated using a cell sorter SH800 (manufactured by SONY Biotechnology).
The separated Treg and CD3/CD28 Dynabeads (manufactured by Thermo Fischer […]) washed three times with the culture medium were mixed with each other, and suspended in a culture medium at 3.4×10^4 cells/mL, respectively, and a 96-well U bottom plate (manufactured by Corning) was seeded with at 150 μL/well.
After culturing for 5 to 7 days, 50 μL of a total volume of each well was transferred to a 96-well white plate. A Celltiter-Glo solution was added at 50 μL/well, and the mixture was allowed to stand at room temperature for 10 minutes, and then a luminescence value was measured using a luminometer (manufactured by TURNER BIOSYSTEMS).

human NK cells = test: NK cell proliferation activity; details: for cell proliferation activity on NK cells: compared with IL-2 (P) and 8His-IL-2 as controls
Procedure: A separation of NK cells from human PBMC was performed by a method below. Frozen human PBMC was thawed according to the method described in Example 13, and CD56^+ NK cells were separated using NK Cell Isolation Kit human (manufactured by Miltenyi Biotech). The separated cells were washed three times with a culture medium (1500 rpm, room temperature, 5 minutes) and then subjected to a proliferation assay below.
FIGS. 2A to 2H show results obtained using a proliferation medium, and FIGS. 2I to 2K show results obtained using the X-vivo 10 SFM.

| Molecule | proliferation of Tresp in the presence of IL-2-stimulated Tregs (human Tresp) | Treg proliferation activity (human Tregs) | cell proliferation activity on NK cells (human NK cells) | IL-2-dependent cell proliferation rate (human Tregs; Treg, IL-2 concentration of 65 nmol/L) [%] | IL-2-dependent cell proliferation rate (human NK cells; NK cells, X-vivo 10 SFM, IL-2 concentration of 65 nmol/L) [%] |
| --- | --- | --- | --- | --- | --- |
| N88C-2: glycosylated IL-2 variant; N88 to C-lactose | inhibited | maintained | greatly reduced |  |  |
| H16C-2: glycosylated IL-2 variant; H16 to C-lactose | inhibited | maintained | greatly reduced |  |  |
| E15C-11: glycosylated IL-2 variant; E15 to C-disialo; C125S |  | maintained | greatly reduced |  |  |
| L19C-9: glycosylated IL-2 variant; L19 to C-asialo | inhibited | maintained | greatly reduced |  |  |
| F78C-V40(IAc)/L12C-11: Cys-PEGylated and glycosylated IL-2 variant; F78 to C-V40(IAc); L12 to C-disialo; C125S (protein, UniProt P60568 21-153, looked up, variant L12C F78C C125S, PEG on C78; disialo glycan on C12, Cys-PEGylated and glycosylated IL-2 variant; F78 to C-V40(IAc); L12 to C-disialo; C125S) Interleukin-2: APTSSSTKKTQCQLEHLLLDLQMILNGINNYKNPKLTRMLTFKFYMPKKATELKHLQCLEEELKPLEEVLNLAQSKNCHLRPRDLISNINVIVLELKGSETTFMCEYADETATIVEFLNRWITFSQSIISTLT |  | lowered | greatly reduced | ≥ 80 |  |
| T3C-Li20(IAc)/L12C-11/V91C-11: Cys-PEGylated and glycosylated IL-2 variant; T3 to C-Li20(IAc); L12, V91 to C-disialo; C125S (protein, UniProt P60568 21-153, looked up, variant T3C L12C V91C C125S, PEG on C3; disialo glycans, Cys-PEGylated and glycosylated IL-2 variant; T3 to C-Li20(IAc); L12, V91 to C-disialo; C125S) Interleukin-2: APCSSSTKKTQCQLEHLLLDLQMILNGINNYKNPKLTRMLTFKFYMPKKATELKHLQCLEEELKPLEEVLNLAQSKNFHLRPRDLISNINCIVLELKGSETTFMCEYADETATIVEFLNRWITFSQSIISTLT |  | lowered | greatly reduced |  |  |
| T3C-V80(Mal)/E15C-11: Cys-PEGylated and glycosylated IL-2 variant; T3 to C-V80(Mal); E15 to C-disialo; C125S (protein, UniProt P60568 21-153, looked up, variant T3C E15C C125S, maleimide PEG on C3; disialo glycan on C15, Cys-PEGylated and glycosylated IL-2 variant; T3 to C-V80(Mal); E15 to C-disialo; C125S) Interleukin-2: APCSSSTKKTQLQLCHLLLDLQMILNGINNYKNPKLTRMLTFKFYMPKKATELKHLQCLEEELKPLEEVLNLAQSKNFHLRPRDLISNINVIVLELKGSETTFMCEYADETATIVEFLNRWITFSQSIISTLT |  | lowered | greatly reduced |  |  |
| A1C-11/T3C-11/S5C-11/L12C-11/V91C-11: glycosylated IL-2 variant; A1, T3, S5, L12, V91 to C-disialo; C125S (protein, UniProt P60568 21-153, looked up, variant A1C T3C S5C L12C V91C C125S, disialo glycans on cysteines, glycosylated IL-2 variant; A1, T3, S5, L12, V91 to C-disialo; C125S) Interleukin-2: CPCSCSTKKTQCQLEHLLLDLQMILNGINNYKNPKLTRMLTFKFYMPKKATELKHLQCLEEELKPLEEVLNLAQSKNFHLRPRDLISNINCIVLELKGSETTFMCEYADETATIVEFLNRWITFSQSIISTLT |  | lowered | greatly reduced |  | ≤ 20 |
| T3C-Y50(IAc)/E15C-11: Cys-PEGylated and glycosylated IL-2 variant; T3 to C-Y50(IAc); E15 to C-disialo; C125S (protein, UniProt P60568 21-153, looked up, variant T3C E15C C125S, PEG on C3; disialo glycan on C15, Cys-PEGylated and glycosylated IL-2 variant; T3 to C-Y50(IAc); E15 to C-disialo; C125S) Interleukin-2: APCSSSTKKTQLQLCHLLLDLQMILNGINNYKNPKLTRMLTFKFYMPKKATELKHLQCLEEELKPLEEVLNLAQSKNFHLRPRDLISNINVIVLELKGSETTFMCEYADETATIVEFLNRWITFSQSIISTLT |  | maintained | greatly reduced |  |  |
| V91C-11/V115C-11: glycosylated IL-2 variant; V91, V115 to C-disialo; C125S (protein, UniProt P60568 21-153, looked up, variant V91C V115C C125S, disialo glycans on cysteines, glycosylated IL-2 variant; V91, V115 to C-disialo; C125S) Interleukin-2: APTSSSTKKTQLQLEHLLLDLQMILNGINNYKNPKLTRMLTFKFYMPKKATELKHLQCLEEELKPLEEVLNLAQSKNFHLRPRDLISNINCIVLELKGSETTFMCEYADETATICEFLNRWITFSQSIISTLT |  | maintained | greatly reduced |  |  |
